Values quoted from earlier work as cited in article PMC4005919.

Target: BID BH3 (Homo sapiens) (UniProt P55957)
Sequence (P55957 80-99): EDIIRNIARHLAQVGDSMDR

BAK, sequence (Q16611 2-211): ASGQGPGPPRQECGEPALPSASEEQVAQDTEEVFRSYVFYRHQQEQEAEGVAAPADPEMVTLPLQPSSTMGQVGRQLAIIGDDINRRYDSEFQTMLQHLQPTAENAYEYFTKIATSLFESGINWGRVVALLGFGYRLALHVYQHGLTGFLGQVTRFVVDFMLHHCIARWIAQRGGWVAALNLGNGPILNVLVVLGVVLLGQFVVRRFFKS

- Kd: 10 µM
Substance: BAK (from UniProt Q16611)
